Patent US20090124537A1 (THRASOS, published 2009)
Blank lines part the entries; values can stand above or below the binder they belong to. Bridges are numbered along the chain shown (N, C = ends). Where no end group is shown, it is not given here.

B2: bone morphogenetic protein-7 (ligand, UniProt P18075 293-431, looked up)
chain: STGSKQRSQNRSKTPKNQEALRMANVAENSSSDQRQACKKHELYVSFRDLGWQDWIIAPEGYAAYYCEGECAFPLNSYMNATNHAIVQTLVHFINPETVPKPCCAPTQLNAISVLYFDDSSNVILKKYRNMVVRACGCH
modifications: radio-iodinated (125I, lactoperoxidase method) when used as tracer; glycoprotein
notes: also called BMP-7

Assays:
[1] = biological target: B2; assay: Scatchard analysis of BMP-7 binding to purified daf-4 ECD
[2] = biological target: T1, BMP-7 receptor of ROS cell plasma membrane fraction (ROS cell type II BMP receptor) (rat); assay: radioligand binding of 125I-BMP-7 to ROS cell receptor-enriched plasma membrane fraction
T1 construct: whole, on cells; Used as a plasma membrane fraction of ROS cells, not as a purified protein; also called BMP-7 receptor-enriched plasma membrane fraction of ROS cells; ROS cell receptor
Protocol: Receptors from ROS cells are obtained by a procedure previously described (Dattatreyamurty, B., et al., (1986) J. Biol. Chem. 261.). […] In a typical assay, fixed amounts of ¹²⁵I-labeled sol. […] The assay incubations were carried out in a reaction volume of 300 μl with shaking for 22 hrs. at 4° C. […] The supernatants were aspirated and pellets washed before counting in a gamma counter (Packard Instr. Downers Grove, Ill.).

[3] = biological target: T1, BMP-7 receptor of ROS cell plasma …; assay: radioligand receptor assay, displacement of 125I-BMP-7 from ROS cell plasma membranes

- Ka [1]: 2.96e+10 M⁻¹
B1: extracellular domain (ECD) of the type II receptor daf-4, hexa-histidine tagged (receptor)
chain: WANTLVSKVAQSNGTGTIKVSAPAKPTLRRMDNEEDEVISIECVYYDEMECEKSGDCEITKKTCYSEAHLKAVGCLAVFGLPTQEINSTEPYLKVDKPQYKSLGCMPYQHADSMNCENESSCRQGRSFRGGIGMCCCSTNNCNMPDLIEMVNPSLKKDSDNSALLWASTPSNMDLESLDKSSSRASQPELAPEDPEDVEHHHHHH
modifications: heavily glycosylated
notes: Expressed in CHO cells; also called daf-4 ECD; ECD of daf-4 receptor

Binder: B2
- Ka [2]: 4.38e+09 M⁻¹

- IC50 [3]: 10 µM
B3: F2-3 (peptide)
peptide: CYFDDSSNVICKKYRS
modifications: disulfide 1-11
notes: also called Peptide F2-3; BMP test agent F2-3
